The text below walks through data of the RNAGym collection of RNA variant scans (doi:10.7554/elife.80360).

B1: HDV Ribozyme (parent)
chain: GGCCGGCAUGGUCCCAGCCUCCUCGCUGGCGCCGGCUGGGCAACAUUCCGAGGGGACCGUCCCCUCGGUAAUGGCGAAUGGGACCCA

Variants of B1 are the subject of the data set. The experiment in a line: self-cleavage, relative activity (ratio to wild type); higher = more cleavage; co-transcriptional.
In the case of C18G C49A, the self-cleavage amounted to 0.0791.

Turning to C18G U27C, the self-cleavage was determined as 0.237.

With G11U G74U, the self-cleavage came to 0.1.

Regarding U9G C15G, the self-cleavage amounted to 0.739.

As to U27G G52U, the self-cleavage came out at 0.872.

Regarding C13U G81A, the self-cleavage was 0.189.

Regarding A45U G55C, the self-cleavage is 0.956.

Take G59C U60C: the self-cleavage turned out to be 0.937.

For C7G C66U, the self-cleavage amounted to 0.231.

G25U C66A: the self-cleavage is 0.172.

Take G40C G55U: the self-cleavage turned out to be 0.205.

As for G29A C41A, the self-cleavage was 0.0405.

Consider A16G G82A, for which the self-cleavage was determined as 0.453.

In the case of C26A A43C, the self-cleavage turned out to be 0.665.

For C7G G52C, the self-cleavage came to 0.229.

As for G6A G54U, the self-cleavage was 0.819.

Take C15A G82U: the self-cleavage was 0.232.

As for G50U A51C, the self-cleavage was 0.889.

With C19A U23C, the self-cleavage stood at 0.0519.

As to G35U C85A, the self-cleavage came to 0.373.

As to C13U G54U, the self-cleavage stood at 0.578.

Take C13A G81U: the self-cleavage worked out at 0.22.

In the case of C4U G34A, the self-cleavage amounted to 0.772.

As to C14G C48A, the self-cleavage was found to be 0.723.

Turning to A8G C62A, the self-cleavage amounted to 1.03.

For A42U C84G, the self-cleavage came out at 0.198.

In the case of G10A G52A, the self-cleavage is 0.749.

For the variant C30A C86U, the self-cleavage was 0.68.

With G50A C66G, the self-cleavage stood at 1.05.

Turning to G28A G38A, the self-cleavage is 0.0647.

On to C26G G39C, for which the self-cleavage is 0.18.

For G5C C75A, the self-cleavage turned out to be 0.0536.

C19A G80U: the self-cleavage turned out to be 0.0513.

Take U65G G81A: the self-cleavage is 0.282.

Take C13U C32U: the self-cleavage was determined as 0.584.

C4U A42U: the self-cleavage came to 0.284.

With C41G G55C, the self-cleavage was determined as 0.723.

Regarding C44G A71U, the self-cleavage was determined as 0.962.

On to C18U G76U, for which the self-cleavage amounted to 1.05.

On to U27A C58G, for which the self-cleavage was 0.831.

For the variant C26U U65G, the self-cleavage was determined as 1.02.

Take U27G U47C: the self-cleavage is 0.383.

Take U20C C66A: the self-cleavage worked out at 0.135.

For C36A C61G, the self-cleavage is 0.269.

As for C14G A43G, the self-cleavage came to 0.0978.

On to G68A C84U, for which the self-cleavage was found to be 0.872.

For the variant U47G C61G, the self-cleavage turned out to be 0.554.

Regarding A16U A70G, the self-cleavage is 0.855.

Turning to U37A G74U, the self-cleavage stood at 0.208.

Regarding A45C C48G, the self-cleavage is 0.369.

On to G11A C26A, for which the self-cleavage is 0.878.

Consider C18U G38A, for which the self-cleavage was found to be 0.176.

Take G10A A43U: the self-cleavage was 0.355.

For G29C C44G, the self-cleavage came out at 0.

For the variant C14G G53U, the self-cleavage was 0.802.

For C22G C84U, the self-cleavage was found to be 0.0563.

Regarding A16C C86A, the self-cleavage came out at 0.692.

Take G1A U9G: the self-cleavage was determined as 0.302.

For the variant G76A U79C, the self-cleavage was found to be 0.964.

Consider C49A G73U, for which the self-cleavage amounted to 0.272.

Consider C21G C32U, for which the self-cleavage came out at 0.128.

In the case of C49A C62A, the self-cleavage is 0.81.

Take G54C A83U: the self-cleavage was found to be 0.631.

Consider C30A G53A, for which the self-cleavage came out at 0.389.

U27G C61A: the self-cleavage was determined as 0.759.

For the variant U12G G67A, the self-cleavage came out at 0.923.

For A8G G35C, the self-cleavage came to 0.0426.

For U12C U47G, the self-cleavage was determined as 0.119.

For C13U G55C, the self-cleavage was found to be 0.658.

For the variant G28C C32U, the self-cleavage worked out at 0.19.

On to U9G G31U, for which the self-cleavage turned out to be 0.554.

For U46C G53U, the self-cleavage turned out to be 0.831.

In the case of G53A C63U, the self-cleavage amounted to 0.812.

In the case of U46G A51U, the self-cleavage stood at 0.45.

For the variant G5C C66G, the self-cleavage amounted to 0.151.

Regarding G2A C85A, the self-cleavage stood at 0.268.

As for A51C A56G, the self-cleavage was found to be 0.831.

With G10A C85A, the self-cleavage worked out at 1.09.

With U37C G53C, the self-cleavage turned out to be 1.2.

As for G67A C84U, the self-cleavage came to 0.658.

As to G29C G59U, the self-cleavage came out at 0.163.

For U20C C84G, the self-cleavage was 0.0978.

Regarding C41A A43G, the self-cleavage is 0.808.

As for C4U C24U, the self-cleavage stood at 0.237.

On to A16G C58U, for which the self-cleavage came out at 0.962.

On to G6A G53C, for which the self-cleavage was 0.928.

As to C66A U79A, the self-cleavage stood at 0.696.

For the variant C15A C19G, the self-cleavage is 0.0519.

For the variant C58U G80A, the self-cleavage was 0.372.

In the case of G50C U69A, the self-cleavage was found to be 0.831.

On to G38A C86G, for which the self-cleavage was 0.107.

Take U23G G82A: the self-cleavage was 0.0449.

For G1U U37G, the self-cleavage is 0.31.

As for G34C U37C, the self-cleavage came out at 0.156.

For C19U G31A, the self-cleavage amounted to 0.102.

On to U12A G29A, for which the self-cleavage worked out at 0.113.

As for G74U U79A, the self-cleavage worked out at 0.268.

With C14G U20G, the self-cleavage amounted to 0.151.

With G76C G80U, the self-cleavage stood at 0.256.

Take G28U G29A: the self-cleavage came to 0.0755.

In the case of C15A A43C, the self-cleavage is 0.0554.

Regarding C44A U69A, the self-cleavage came to 0.727.

For C13U U27A, the self-cleavage was found to be 1.29.

With U65G G80U, the self-cleavage amounted to 0.261.

G54C A78U: the self-cleavage is 0.324.

For G6A C22G, the self-cleavage turned out to be 0.0739.

As to G28C C85U, the self-cleavage was 0.

Turning to C49A G53U, the self-cleavage stood at 0.608.

With G11C C86U, the self-cleavage is 0.38.

For the variant U9A C48G, the self-cleavage was 1.31.

With C13U C19A, the self-cleavage is 0.138.

For C63A G81A, the self-cleavage turned out to be 0.446.

For the variant U69A G74C, the self-cleavage was determined as 0.297.

Regarding C14G A56U, the self-cleavage is 0.969.

U37G U72A: the self-cleavage came out at 0.

In the case of C66G G68U, the self-cleavage worked out at 0.812.

For U27A C84G, the self-cleavage amounted to 0.957.

C63U U69A: the self-cleavage worked out at 0.975.

For the variant G28C C75G, the self-cleavage was 0.113.

With G59U G73A, the self-cleavage was found to be 0.644.

As to G10A G73U, the self-cleavage was found to be 0.159.

On to C3A G5A, for which the self-cleavage is 0.0332.

For the variant U9C C64G, the self-cleavage worked out at 0.95.

As for C13A U27C, the self-cleavage is 0.594.

As to G52A C61A, the self-cleavage is 1.19.

Turning to U9A U23A, the self-cleavage is 1.12.

For G11U C15A, the self-cleavage turned out to be 0.155.

For the variant C36A U79C, the self-cleavage was determined as 0.086.

With G29A U69C, the self-cleavage amounted to 0.131.

Consider G1A G2C, for which the self-cleavage stood at 0.0773.

Turning to C3U U37A, the self-cleavage was determined as 0.128.

Consider G40C A78U, for which the self-cleavage came out at 0.122.

Consider C19A C62G, for which the self-cleavage stood at 0.104.

Take A16U U46C: the self-cleavage worked out at 1.21.

As to C33U A71G, the self-cleavage worked out at 0.886.

For the variant A8G A42C, the self-cleavage was 0.0573.

For the variant G53C A87C, the self-cleavage worked out at 1.01.

Regarding G25A C36G, the self-cleavage amounted to 0.0997.

With C3A A42U, the self-cleavage stood at 0.0773.

Turning to A42U G73A, the self-cleavage was 0.403.

As to A42G G55C, the self-cleavage is 0.675.

As for C18A U65A, the self-cleavage was determined as 0.0723.

For U23G C75U, the self-cleavage is 0.089.

As for C64A U79G, the self-cleavage was 0.684.

With C18G G53C, the self-cleavage is 0.227.

For the variant G35C C75G, the self-cleavage was found to be 0.391.

On to U23C G54C, for which the self-cleavage came to 0.673.

As to G38U G68A, the self-cleavage was 0.163.

Regarding G38C U46C, the self-cleavage was 0.0923.

In the case of G55U G68A, the self-cleavage amounted to 1.03.

Take U65G C85U: the self-cleavage came out at 0.831.

Turning to A8G G68C, the self-cleavage is 1.06.

G2C G28C: the self-cleavage was 0.0475.

Turning to C19A G76U, the self-cleavage worked out at 0.262.

In the case of C44U G76C, the self-cleavage is 0.725.

Consider G2C A43U, for which the self-cleavage was determined as 0.0297.

Take U47C G68U: the self-cleavage came to 0.462.

For the variant C21G C64U, the self-cleavage amounted to 0.0287.

In the case of C13G G39U, the self-cleavage was found to be 0.0361.

In the case of U23G C26A, the self-cleavage was determined as 0.739.

As for C49A U65G, the self-cleavage was 0.539.

For C4G G52A, the self-cleavage came to 0.47.

For the variant C30U A77G, the self-cleavage was determined as 0.489.

With G67C A77G, the self-cleavage came out at 0.508.

Take C26U U46C: the self-cleavage was determined as 0.897.

As to C44G G53C, the self-cleavage amounted to 0.733.

Regarding C14G C26G, the self-cleavage came out at 0.692.
